For data set [1], the target named is T1, mCherry-tagged full-length Spindly (^mChSpindly^FL) (human), Q96EA4.
T1 chain: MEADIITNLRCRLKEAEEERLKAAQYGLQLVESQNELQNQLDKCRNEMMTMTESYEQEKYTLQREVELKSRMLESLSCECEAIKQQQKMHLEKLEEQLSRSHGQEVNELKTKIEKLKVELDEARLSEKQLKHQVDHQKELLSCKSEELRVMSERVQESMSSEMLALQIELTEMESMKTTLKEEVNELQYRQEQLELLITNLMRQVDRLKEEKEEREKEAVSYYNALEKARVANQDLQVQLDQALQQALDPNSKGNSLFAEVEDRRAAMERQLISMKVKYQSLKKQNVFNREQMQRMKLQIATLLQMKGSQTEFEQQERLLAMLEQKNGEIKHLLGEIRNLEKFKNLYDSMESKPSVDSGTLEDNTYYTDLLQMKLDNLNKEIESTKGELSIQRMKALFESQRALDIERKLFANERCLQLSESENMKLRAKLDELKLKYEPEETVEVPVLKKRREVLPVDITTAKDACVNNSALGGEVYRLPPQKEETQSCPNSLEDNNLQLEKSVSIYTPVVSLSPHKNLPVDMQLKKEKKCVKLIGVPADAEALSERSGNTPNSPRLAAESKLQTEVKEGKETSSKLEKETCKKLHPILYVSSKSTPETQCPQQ
Kind of data set: mass photometry. The conditions noted are these: remark: other sources report otherwise.

The data set “mass photometry” deals with the molecule itself. Description: mass photometry.
In the next data set the target is T2, Spindly^250-605 (human, UniProt Q96EA4 250-605).
T2 sequence: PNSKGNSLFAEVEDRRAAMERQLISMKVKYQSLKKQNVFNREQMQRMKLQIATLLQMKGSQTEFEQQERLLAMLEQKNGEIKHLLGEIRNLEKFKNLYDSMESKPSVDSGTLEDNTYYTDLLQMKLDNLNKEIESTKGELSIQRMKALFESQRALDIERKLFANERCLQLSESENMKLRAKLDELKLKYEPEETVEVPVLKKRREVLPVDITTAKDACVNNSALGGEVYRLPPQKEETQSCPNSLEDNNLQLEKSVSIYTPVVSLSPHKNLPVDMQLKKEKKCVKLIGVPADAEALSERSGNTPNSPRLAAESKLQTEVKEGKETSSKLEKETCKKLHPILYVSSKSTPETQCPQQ
Description: SEC. On the technique in general: SEC sorts molecules by how far they enter the pores of the column.

Data set [2] deals with the molecule itself.
The data set “crystal structure” concerns the molecule itself. Description: crystal structure.

“And” between values parts separate entries of the source, which are not always exact repeats. Equal values may be shown once. Read-outs that look alike come from different tables or passages of the source.

Data on seven molecules can be found in article doi:10.1101/2022.02.02.478874 (bioRxiv, 2022).

B1: mCherry-tagged full-length Spindly (^mChSpindly^FL), Q96EA4 1-605 (natural protein)
chain: T1 chain
In the case of B1, the stoichiometry N (as a rule, a count of units in the complex or per binding partner) in data set [1] turned out to be 2.

B2: ^mChSpindly^76-605 (domain or fragment)
chain: LSCECEAIKQQQKMHLEKLEEQLSRSHGQEVNELKTKIEKLKVELDEARLSEKQLKHQVDHQKELLSCKSEELRVMSERVQESMSSEMLALQIELTEMESMKTTLKEEVNELQYRQEQLELLITNLMRQVDRLKEEKEEREKEAVSYYNALEKARVANQDLQVQLDQALQQALDPNSKGNSLFAEVEDRRAAMERQLISMKVKYQSLKKQNVFNREQMQRMKLQIATLLQMKGSQTEFEQQERLLAMLEQKNGEIKHLLGEIRNLEKFKNLYDSMESKPSVDSGTLEDNTYYTDLLQMKLDNLNKEIESTKGELSIQRMKALFESQRALDIERKLFANERCLQLSESENMKLRAKLDELKLKYEPEETVEVPVLKKRREVLPVDITTAKDACVNNSALGGEVYRLPPQKEETQSCPNSLEDNNLQLEKSVSIYTPVVSLSPHKNLPVDMQLKKEKKCVKLIGVPADAEALSERSGNTPNSPRLAAESKLQTEVKEGKETSSKLEKETCKKLHPILYVSSKSTPETQCPQQ
Regarding B2, in “mass photometry”, the “stoichiometry N” value came out at 2.

B3: Spindly^1-250 (domain or fragment)
chain: MEADIITNLRCRLKEAEEERLKAAQYGLQLVESQNELQNQLDKCRNEMMTMTESYEQEKYTLQREVELKSRMLESLSCECEAIKQQQKMHLEKLEEQLSRSHGQEVNELKTKIEKLKVELDEARLSEKQLKHQVDHQKELLSCKSEELRVMSERVQESMSSEMLALQIELTEMESMKTTLKEEVNELQYRQEQLELLITNLMRQVDRLKEEKEEREKEAVSYYNALEKARVANQDLQVQLDQALQQALDP
Consider B3, for which the binding result with Spindly^250-605 is on record as “binds”.

B4: ^mChSpindly^Δ276-306 (natural protein)
chain: MEADIITNLRCRLKEAEEERLKAAQYGLQLVESQNELQNQLDKCRNEMMTMTESYEQEKYTLQREVELKSRMLESLSCECEAIKQQQKMHLEKLEEQLSRSHGQEVNELKTKIEKLKVELDEARLSEKQLKHQVDHQKELLSCKSEELRVMSERVQESMSSEMLALQIELTEMESMKTTLKEEVNELQYRQEQLELLITNLMRQVDRLKEEKEEREKEAVSYYNALEKARVANQDLQVQLDQALQQALDPNSKGNSLFAEVEDRRAAMERQLISMKGSQTEFEQQERLLAMLEQKNGEIKHLLGEIRNLEKFKNLYDSMESKPSVDSGTLEDNTYYTDLLQMKLDNLNKEIESTKGELSIQRMKALFESQRALDIERKLFANERCLQLSESENMKLRAKLDELKLKYEPEETVEVPVLKKRREVLPVDITTAKDACVNNSALGGEVYRLPPQKEETQSCPNSLEDNNLQLEKSVSIYTPVVSLSPHKNLPVDMQLKKEKKCVKLIGVPADAEALSERSGNTPNSPRLAAESKLQTEVKEGKETSSKLEKETCKKLHPILYVSSKSTPETQCPQQ
On to B4, for which the “stoichiometry N” value in data set [2] is 2 and 4.

B5: Spindly^1-100 (domain or fragment)
chain: MEADIITNLRCRLKEAEEERLKAAQYGLQLVESQNELQNQLDKCRNEMMTMTESYEQEKYTLQREVELKSRMLESLSCECEAIKQQQKMHLEKLEEQLSR
For the molecule B5, the “stoichiometry N” value in “crystal structure” was found to be 2.

B6: ^mChSpindly^ΔRV (natural protein)
chain: MEADIITNLRCRLKEAEEERLKAAQYGLQLVESQNELQNQLDKCRNEMMTMTESYEQEKYTLQREVELKSRMLESLSCECEAIKQQQKMHLEKLEEQLSRSHGQEVNELKTKIEKLKVELDEARLSEKQLKHQVDHQKELLSCKSEELRVMSEQESMSSEMLALQIELTEMESMKTTLKEEVNELQYRQEQLELLITNLMRQVDRLKEEKEEREKEAVSYYNALEKARVANQDLQVQLDQALQQALDPNSKGNSLFAEVEDRRAAMERQLISMKVKYQSLKKQNVFNREQMQRMKLQIATLLQMKGSQTEFEQQERLLAMLEQKNGEIKHLLGEIRNLEKFKNLYDSMESKPSVDSGTLEDNTYYTDLLQMKLDNLNKEIESTKGELSIQRMKALFESQRALDIERKLFANERCLQLSESENMKLRAKLDELKLKYEPEETVEVPVLKKRREVLPVDITTAKDACVNNSALGGEVYRLPPQKEETQSCPNSLEDNNLQLEKSVSIYTPVVSLSPHKNLPVDMQLKKEKKCVKLIGVPADAEALSERSGNTPNSPRLAAESKLQTEVKEGKETSSKLEKETCKKLHPILYVSSKSTPETQCPQQ
For B6, the “stoichiometry N” value in the data set “mass photometry” was determined as 2.

B7: Spindly^1-275 (domain or fragment)
chain: MEADIITNLRCRLKEAEEERLKAAQYGLQLVESQNELQNQLDKCRNEMMTMTESYEQEKYTLQREVELKSRMLESLSCECEAIKQQQKMHLEKLEEQLSRSHGQEVNELKTKIEKLKVELDEARLSEKQLKHQVDHQKELLSCKSEELRVMSERVQESMSSEMLALQIELTEMESMKTTLKEEVNELQYRQEQLELLITNLMRQVDRLKEEKEEREKEAVSYYNALEKARVANQDLQVQLDQALQQALDPNSKGNSLFAEVEDRRAAMERQLISM
In the case of B7, in data set [2], the “stoichiometry N” value is 2 and 4.
